Assay [1] deals with human full-length CD45 extracellular domain (ECD) isoform RABC (human) (UniProt P08575). As to the kind of experiment: SPR; GE Biacore T100; about 200 RU of human CD45 ECD, E3/49K immobilised on an SA-chip, reference channel with an unrelated protein; HBS-P+; twofold serial dilutions, 30 s association, 30 ul/min, 25 °C. For orientation: SPR reads the build-up and loss of mass on a sensor chip optically.

The target is the same in assay [2]. Nature of the assay: cryo-EM structure; fully glycosylated human CD45 ECD bound to E3/49K, purified by size exclusion chromatography; 0.01% FOM; 3.8-Å nominal resolution map. Background: In gel filtration, larger molecules generally elute earlier.

UniProt P08575, sequence (P08575 26-577): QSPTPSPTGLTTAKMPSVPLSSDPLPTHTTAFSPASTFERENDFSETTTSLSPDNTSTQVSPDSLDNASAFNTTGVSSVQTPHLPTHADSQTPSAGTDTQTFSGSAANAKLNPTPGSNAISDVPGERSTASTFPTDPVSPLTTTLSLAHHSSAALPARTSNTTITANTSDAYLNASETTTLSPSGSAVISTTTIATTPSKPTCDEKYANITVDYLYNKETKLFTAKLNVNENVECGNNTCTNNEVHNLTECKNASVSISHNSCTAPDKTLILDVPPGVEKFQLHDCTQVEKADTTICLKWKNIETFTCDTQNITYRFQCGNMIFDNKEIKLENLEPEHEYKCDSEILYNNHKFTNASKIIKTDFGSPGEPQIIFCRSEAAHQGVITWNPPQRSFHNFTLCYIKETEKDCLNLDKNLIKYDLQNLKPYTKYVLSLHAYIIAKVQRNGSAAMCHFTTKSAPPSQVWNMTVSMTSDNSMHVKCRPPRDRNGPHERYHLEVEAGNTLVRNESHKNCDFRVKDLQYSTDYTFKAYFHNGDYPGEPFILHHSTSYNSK

Broadly, the Kd is the concentration at which binding is half-saturated. E3/49K R1 domain (domain or fragment): the Kd in assay [1] came out at 74 nM.

As for E3/49K R2 domain (domain or fragment), the Kd in assay [1] was 145 nM.

The term koff denotes the rate constant with which the complex falls apart. The low end stands for slow dissociation, the high end for fast dissociation. Usually kon stands for the second-order rate constant of association. A low value points to slower complex formation. With “adenoviral D19a strain E3/49K ECD (domain or fragment)”, the stoichiometry N (CD45 per E3/49K) in assay [2] worked out at 2. In assay [1], this substance yielded a Kd of 0.3 nM, a koff of 0.000598 s⁻¹ and a kon of 2.08e+06 M⁻¹ s⁻¹.

For the origin of these results see paper PMC11537708.
